B1: PC7-SOL (soluble form of PC7, amino acids 1-663) (protein)
chain: LAGTGGPDGQGTGGPSWAVHLESLEGDGEEETLEQQADALAQAAGLVNAGRIGELQGHYLFVQPAGHRPALEVEAIRQQVEAVLAGHEAVRWHSEQRLLRRAKRSVHFNDPKYPQQWHLNNRRSPGRDINVTGVWERNVTGRGVTVVVVDDGVEHTIQDIAPNYSPEGSYDLNSNDPDPMPHPDVENGNHHGTRCAGEIAAVPNNSFCAVGVAYGSRIAGIRVLDGPLTDSMEAVAFNKHYQINDIYSCSWGPDDDGKTVDGPHQLGKAALQHGVIAGRQGFGSIFVVASGNGGQHNDNCNYDGYANSIYTVTIGAVDEEGRMPFYAEECASMLAVTFSGGDKMLRSIVTTDWDLQKGTGCTEGHTGTSAAAPLAAGMIALMLQVRPCLTWRDVQHIIVFTATRYEDRRAEWVTNEAGFSHSHQHGFGLLNAWRLVNAAKIWTSVPYLASYVSPVLKENKAIPQSPRSLEVLWNVSRMDLEMSGLKTLEHVAVTVSITHPRRGSLELKLFCPSGMMSLIGAPRSMDSDPNGFNDWTFSTVRCWGERARGTYRLVIRDVGDESFQVGILRQWQLTLYGSVWSAVDIRDRQRLLESAMSGKYLHDDFALPCPPGLKIPEEDGYTITPN
B2: human PC5 (PC5A), expressed from pSYN-PC5-003 (protein)
chain: RVYTNHWAVKIAGGFPEANRIASKYGFINIGQIGALKDYYHFYHSRTIKRSVISSRGTHSFISMEPKVEWIQQQVVKKRTKRDYDFSRAQSTYFNDPKWPSMWYMHCSDNTHPCQSDMNIEGAWKRGYTGKNIVVTILDDGIERTHPDLMQNYDALASCDVNGNDLDPMPRYDASNENKHGTRCAGEVAAAANNSHCTVGIAFNAKIGGVRMLDGDVTDMVEAKSVSFNPQHVHIYSASWGPDDDGKTVDGPAPLTRQAFENGVRMGRRGLGSVFVWASGNGGRSKDHCSCDGYTNSIYTISISSTAESGKKPWYLEECSSTLATTYSSGESYDKKIITTDLRQRCTDNHTGTSASAPMAAGIIALALEANPFLTWRDVQHVIVRTSRAGHLNANDWKTNAAGFKVSHLYGFGLMDAEAMVMEAEKWTTVPRQHVCVESTDRQIKTIRPNSAVRSIYKASGCSDNPNRHVNYLEHVVVRITITHPRRGDLAIYLTSPSGTRSQLLANRLFDHSMEGFKNWEFMTIHCWGERAAGDWVLEVYDTPSQLRNFKTPGKLKEWSLVLYGTSVQPYSPTNEFPKVERFRYSRVEDPTDDYGTEDYAGPCDPECSEVGCDGPGPDHCNDCLHYYYKLKNNTRICVSSCPPGHYHADKKRCRKCAPNCESCFGSHGDQCMSCKYGYFLNEETNSCVTHCPDGSYQDTKKNLCRKCSENCKTCTEFHNCTECRDGLSLQGSRCSVSCEDGRYFNGQDCQPCHRFCATCAGAGADGCINCTEGYFMEDGRCVQSCSISYYFDHSSENGYKSCKKCDISCLTCNGPGFKNCTSCPSGYLLDLGMCQMGAICKDATEESWAEGGFCMLVKKNNLCQRKVLQQLCCKTCTFQG
B3: KEX2-SOL (soluble form of the yeast endoprotease KEX2, amino acids 1-675) (protein)
chain: LVSSQQIPLKDHTSRQYFAVESNETLSRLEEMHPNWKYEHDVRGLPNHYVFSKELLKLGKRSSLEELQGDNNDHILSVHDLFPRNDLFKRLPVPAPPMDSSLLPVKEAEDKLSINDPLFERQWHLVNPSFPGSDINVLDLWYNNITGAGVVAAIVDDGLDYENEDLKDNFCAEGSWDFNDNTNLPKPRLSDDYHGTRCAGEIAAKKGNNFCGVGVGYNAKISGIRILSGDITTEDEAASLIYGLDVNDIYSCSWGPADDGRHLQGPSDLVKKALVKGVTEGRDSKGAIYVFASGNGGTRGDNCNYDGYTNSIYSITIGAIDHKDLHPPYSEGCSAVMAVTYSSGSGEYIHSSDINGRCSNSHGGTSAAAPLAAGVYTLLLEANPNLTWRDVQYLSILSAVGLEKNADGDWRDSAMGKKYSHRYGFGKIDAHKLIEMSKTWENVNAQTWFYLPTLYVSQSTNSTEETLESVITISEKSLQDANFKRIEHVTVTVDIDTEIRGTTTVDLISPAGIISNLGVVRPRDVSSEGFKDWTFMSVAHWGENGVGDWKIKVKTTENGHRIDFHSWRLKLFGESIDSSKTETFVFGNDKEEVEPAATESTVSQYSASSTSISISATSTSSISIGVETSAIPQTTTASTDPDSDPNTPKKLSSPRQ

Tests used:
[1] = molecular target: proFIX-Fc (FIX-Fc retaining the FIX propeptide; dimer or monomer form not given)
[2] = molecular target: N297A version of FIX-Fc retaining the propeptide
[3] = molecular target: proFIX-Fc monomer-dimer hybrid (FIX-Fc monomer retaining the propeptide)

| Protein | Propeptide Processing (Western blotting), CHO, stable transfection [1] | Propeptide Processing (Western blotting), CHO, transient transfection [1] | Propeptide Processing (Western blotting), HEK, transient transfection [1] | peptide mapping (tryptic digest, LC/MS) for the propeptide indicator peptide (PIP), CHO stable line [1] | Propeptide Processing (Western blotting), HEK, stable transfection [2] | Propeptide Processing (Western blotting), HEK, stable transfection [1] | peptide mapping (tryptic digest, LC/MS) for the propeptide indicator peptide (PIP), HEK stable line [3] | propeptide processing, Fc and propeptide Western blots, HEK 293 transient transfection (FIG. 8 lane 4, N297A Fc) [2] |
| --- | --- | --- | --- | --- | --- | --- | --- | --- |
| B1 | does not fully process | processes | does not fully process | ProFIX-Fc was also found in CHO FIX-Fc protein that was cotransfected with PC7, although possibly at lower levels as indicated in the UV trace | does not fully process |  |  |  |
| B2 | processes | processes | processes |  |  | processes | undetectable in purified FIX-Fc monomer cotransfected with PC5 |  |
| B3 |  | processes (cryptic cleavage) | does not fully process |  |  |  |  | FIX-Fc cotransfected with KEX2-SOL is not processed, as can be seen by the presence of propeptide in this material (lanes 3 and 4, bands present on both blots) |

Source: patent US20070259402
